Measured values taken from patent publication US20220204643A1 (published 2022).

Key:
[1] = biological target: T1, glucuronidase, beta pseudogene (human)
T1 construct: HuProt array protein; labelled _frag; pseudogene product; also called BC025996.2_frag
T1 chain: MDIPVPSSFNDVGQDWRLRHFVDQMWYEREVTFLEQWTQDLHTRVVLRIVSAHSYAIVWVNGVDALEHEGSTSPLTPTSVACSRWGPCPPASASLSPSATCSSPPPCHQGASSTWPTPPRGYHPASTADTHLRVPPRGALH

[2] = biological target: T2, dual specificity phosphatase 12 (human, UniProt Q9UNI6 1-340)
T2 construct: HuProt array protein, full-length recombinant from yeast; also called DUSP12
T2 sequence (Q9UNI6 whole entry): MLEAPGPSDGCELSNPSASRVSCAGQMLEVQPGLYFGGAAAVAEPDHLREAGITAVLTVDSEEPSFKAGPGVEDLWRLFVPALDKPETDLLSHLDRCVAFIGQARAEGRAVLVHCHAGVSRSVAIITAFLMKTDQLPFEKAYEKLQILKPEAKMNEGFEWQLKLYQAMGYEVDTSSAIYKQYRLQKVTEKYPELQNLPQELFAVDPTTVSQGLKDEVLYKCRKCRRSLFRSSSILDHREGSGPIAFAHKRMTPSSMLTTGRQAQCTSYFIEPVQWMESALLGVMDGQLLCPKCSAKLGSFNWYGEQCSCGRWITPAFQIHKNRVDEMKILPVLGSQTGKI

[3] = biological target: T3, actinin alpha 1, transcript variant 2 (human, UniProt P12814 1-892)
T3 construct: HuProt array protein, full-length recombinant from yeast; also called ACTN1
T3 sequence (P12814 whole entry, change not shown): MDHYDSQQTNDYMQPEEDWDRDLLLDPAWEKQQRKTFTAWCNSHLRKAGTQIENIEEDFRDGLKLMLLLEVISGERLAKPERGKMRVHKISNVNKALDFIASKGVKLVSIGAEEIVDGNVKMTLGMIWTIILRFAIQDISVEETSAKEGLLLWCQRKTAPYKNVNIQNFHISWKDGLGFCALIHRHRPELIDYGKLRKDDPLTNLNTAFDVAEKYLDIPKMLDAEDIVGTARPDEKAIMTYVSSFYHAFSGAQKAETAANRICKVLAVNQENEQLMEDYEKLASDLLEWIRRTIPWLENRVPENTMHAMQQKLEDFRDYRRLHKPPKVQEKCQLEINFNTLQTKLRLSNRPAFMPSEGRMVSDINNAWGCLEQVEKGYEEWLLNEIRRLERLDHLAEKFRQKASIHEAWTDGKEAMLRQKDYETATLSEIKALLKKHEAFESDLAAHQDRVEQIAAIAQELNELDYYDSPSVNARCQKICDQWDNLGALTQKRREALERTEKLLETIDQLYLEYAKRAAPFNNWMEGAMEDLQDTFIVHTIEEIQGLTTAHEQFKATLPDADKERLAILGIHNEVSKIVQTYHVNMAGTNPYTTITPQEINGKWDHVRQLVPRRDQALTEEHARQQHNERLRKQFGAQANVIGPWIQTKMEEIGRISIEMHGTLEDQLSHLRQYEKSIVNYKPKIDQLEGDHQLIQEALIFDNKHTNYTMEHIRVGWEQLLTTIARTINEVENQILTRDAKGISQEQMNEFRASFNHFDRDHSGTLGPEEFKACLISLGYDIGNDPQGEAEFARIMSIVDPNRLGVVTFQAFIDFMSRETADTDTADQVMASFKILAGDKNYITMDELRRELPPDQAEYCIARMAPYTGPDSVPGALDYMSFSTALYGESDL

cancer/testis antigen 1A = biological target: T4, cancer/testis antigen 1A (human, UniProt P78358 1-180)
T4 construct: HuProt array protein, full-length recombinant from yeast; also called CTAG1A
T4 sequence (P78358 whole entry): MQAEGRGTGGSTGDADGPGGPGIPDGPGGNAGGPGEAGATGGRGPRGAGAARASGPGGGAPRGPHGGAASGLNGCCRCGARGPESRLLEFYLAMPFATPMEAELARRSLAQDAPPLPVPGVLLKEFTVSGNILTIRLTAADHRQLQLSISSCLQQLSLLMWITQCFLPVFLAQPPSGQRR

[4] = biological target: T5, synaptotagmin 12, transcript variant X4 (human, UniProt Q8IV01 1-421)
T5 construct: HuProt array protein, full-length recombinant from yeast; also called SYT12
T5 sequence: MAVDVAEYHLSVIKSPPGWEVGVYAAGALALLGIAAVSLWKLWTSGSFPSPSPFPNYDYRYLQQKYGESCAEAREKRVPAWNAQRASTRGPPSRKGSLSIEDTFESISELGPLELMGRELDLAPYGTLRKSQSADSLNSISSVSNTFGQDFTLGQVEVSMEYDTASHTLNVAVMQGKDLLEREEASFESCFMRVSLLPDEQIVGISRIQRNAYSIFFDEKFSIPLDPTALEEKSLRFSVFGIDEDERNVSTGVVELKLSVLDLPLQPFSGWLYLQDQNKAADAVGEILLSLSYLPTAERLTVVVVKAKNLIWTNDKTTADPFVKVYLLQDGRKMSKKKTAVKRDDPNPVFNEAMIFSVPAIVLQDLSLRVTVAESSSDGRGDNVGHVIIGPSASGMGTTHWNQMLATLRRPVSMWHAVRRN

[5] = biological target: T6, glycogen phosphorylase L, transcript variant 1 (human, UniProt P06737 2-847)
T6 construct: HuProt array protein, full-length recombinant from yeast; also called PYGL
T6 sequence: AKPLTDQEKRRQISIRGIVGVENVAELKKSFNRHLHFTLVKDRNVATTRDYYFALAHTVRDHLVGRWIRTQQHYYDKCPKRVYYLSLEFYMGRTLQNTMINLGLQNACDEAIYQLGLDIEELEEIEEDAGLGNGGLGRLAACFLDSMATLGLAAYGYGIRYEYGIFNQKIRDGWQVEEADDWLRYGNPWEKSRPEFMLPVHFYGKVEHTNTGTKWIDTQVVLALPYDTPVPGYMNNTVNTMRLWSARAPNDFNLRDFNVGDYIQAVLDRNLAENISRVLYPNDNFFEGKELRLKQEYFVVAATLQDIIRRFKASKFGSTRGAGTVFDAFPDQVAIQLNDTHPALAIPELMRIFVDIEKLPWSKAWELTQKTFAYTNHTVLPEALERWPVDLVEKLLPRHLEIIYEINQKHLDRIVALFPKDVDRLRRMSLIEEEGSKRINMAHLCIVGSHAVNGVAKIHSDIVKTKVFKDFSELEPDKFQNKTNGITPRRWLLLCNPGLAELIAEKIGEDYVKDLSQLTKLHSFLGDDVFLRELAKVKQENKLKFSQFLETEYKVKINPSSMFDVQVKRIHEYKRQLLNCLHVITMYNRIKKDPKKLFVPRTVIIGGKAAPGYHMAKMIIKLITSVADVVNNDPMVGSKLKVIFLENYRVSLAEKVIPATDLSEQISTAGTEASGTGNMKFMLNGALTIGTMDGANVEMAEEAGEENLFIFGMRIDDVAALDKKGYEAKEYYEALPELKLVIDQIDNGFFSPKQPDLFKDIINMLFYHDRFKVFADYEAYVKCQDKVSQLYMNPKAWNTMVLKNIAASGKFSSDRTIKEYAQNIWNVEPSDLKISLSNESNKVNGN

Reticulocalbin 3 = biological target: T7, Reticulocalbin 3 (human, UniProt Q96D15 21-328)
T7 construct: HuProt array protein, full-length recombinant from yeast; also called RCN3
T7 sequence: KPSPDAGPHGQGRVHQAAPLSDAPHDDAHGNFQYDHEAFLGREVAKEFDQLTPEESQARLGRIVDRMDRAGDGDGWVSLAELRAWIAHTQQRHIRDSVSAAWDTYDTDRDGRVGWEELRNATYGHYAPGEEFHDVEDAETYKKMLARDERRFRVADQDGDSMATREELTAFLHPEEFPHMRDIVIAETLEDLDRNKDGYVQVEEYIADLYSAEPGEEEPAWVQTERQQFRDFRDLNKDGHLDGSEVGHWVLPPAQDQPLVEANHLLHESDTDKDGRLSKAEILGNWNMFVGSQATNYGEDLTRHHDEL

[6] = biological target: T8, microfibril associated protein 3, transcript variant 3 (human, UniProt P55082 19-362)
T8 construct: HuProt array protein, full-length recombinant from yeast; also called MFAP3
T8 sequence (P55082 19-362 limits assumed, change not shown): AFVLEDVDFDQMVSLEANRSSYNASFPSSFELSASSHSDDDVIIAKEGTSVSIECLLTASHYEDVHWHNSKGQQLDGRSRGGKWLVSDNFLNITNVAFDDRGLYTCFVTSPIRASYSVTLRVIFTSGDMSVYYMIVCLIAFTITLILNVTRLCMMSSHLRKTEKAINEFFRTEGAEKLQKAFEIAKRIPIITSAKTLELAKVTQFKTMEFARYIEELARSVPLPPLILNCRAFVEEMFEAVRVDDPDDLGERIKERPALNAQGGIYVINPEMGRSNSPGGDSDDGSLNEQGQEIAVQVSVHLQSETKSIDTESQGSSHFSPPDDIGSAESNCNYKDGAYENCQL

[7] = biological target: T9, olfactory receptor family 6 subfamily Q member 1 (gene/pseudogene) (human, UniProt Q8NGQ2 1-317)
T9 construct: HuProt array protein, full-length recombinant from yeast; also called OR6Q1
T9 sequence: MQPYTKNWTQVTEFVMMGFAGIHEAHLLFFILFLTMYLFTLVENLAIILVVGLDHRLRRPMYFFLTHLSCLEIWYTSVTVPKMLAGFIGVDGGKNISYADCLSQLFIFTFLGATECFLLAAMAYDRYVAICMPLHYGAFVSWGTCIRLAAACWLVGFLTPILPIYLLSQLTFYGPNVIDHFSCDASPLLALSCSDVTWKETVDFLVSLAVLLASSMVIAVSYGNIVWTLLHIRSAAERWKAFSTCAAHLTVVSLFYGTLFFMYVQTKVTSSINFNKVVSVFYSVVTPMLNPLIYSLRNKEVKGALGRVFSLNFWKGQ

[8] = biological target: T10, 5-hydroxytryptamine receptor 1E (human, UniProt P28566 1-365)
T10 construct: HuProt array protein, full-length recombinant from yeast; also called HTR1E
T10 sequence (P28566 whole entry): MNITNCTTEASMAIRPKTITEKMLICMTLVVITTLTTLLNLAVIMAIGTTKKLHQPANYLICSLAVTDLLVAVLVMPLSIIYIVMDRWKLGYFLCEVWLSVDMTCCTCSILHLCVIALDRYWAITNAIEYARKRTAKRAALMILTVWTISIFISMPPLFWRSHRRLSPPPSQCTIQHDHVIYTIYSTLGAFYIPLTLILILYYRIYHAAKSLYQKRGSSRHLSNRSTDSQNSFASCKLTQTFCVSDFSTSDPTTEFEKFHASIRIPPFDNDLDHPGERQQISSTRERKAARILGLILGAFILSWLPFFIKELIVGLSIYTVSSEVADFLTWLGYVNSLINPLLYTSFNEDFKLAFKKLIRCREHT

[9] = biological target: T11, butyrophilin subfamily 1 member A1 (human, UniProt Q13410 27-526); test: protein array
T11 construct: on protein array; also called BTN1A1
T11 sequence: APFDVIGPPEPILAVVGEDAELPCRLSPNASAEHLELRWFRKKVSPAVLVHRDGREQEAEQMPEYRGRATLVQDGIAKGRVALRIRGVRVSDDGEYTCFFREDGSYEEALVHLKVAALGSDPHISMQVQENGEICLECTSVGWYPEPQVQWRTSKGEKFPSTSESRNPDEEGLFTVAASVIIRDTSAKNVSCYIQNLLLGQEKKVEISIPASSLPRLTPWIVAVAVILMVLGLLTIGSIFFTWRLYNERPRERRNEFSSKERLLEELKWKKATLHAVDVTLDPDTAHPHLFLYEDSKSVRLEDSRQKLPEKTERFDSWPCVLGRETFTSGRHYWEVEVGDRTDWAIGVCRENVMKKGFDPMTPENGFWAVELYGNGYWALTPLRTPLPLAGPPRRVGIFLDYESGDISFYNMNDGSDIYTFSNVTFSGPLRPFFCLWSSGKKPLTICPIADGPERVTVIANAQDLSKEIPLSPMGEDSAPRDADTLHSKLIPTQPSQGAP

B1: TBRE1006 (antibody, V domains shown)
VH: QVQLVQSGAEVKKPGASVKVSCKASGYIFTSYAIHWVRQAPGQRLEWMGWINAGNGNTKYSQKFQGRVTITRDTSANTAYMELSSLRSEDTAIYYCARDIAVAITNYFGSWGQGTLVTVSS
VL: EIVLTQSPATLSLSPGERATLSCRASQSVGSYLAWYQQKPGQAPRLLIYDASNRATGIPARFSGSGSGTDFTLTISSLEPEDFAVYYCQQGSNWLALTFGGGTKVEIKR
notes: detected with anti-human IgG Fc
binding result [1]: binds

B2: TBRE1007 (antibody, V domains shown)
VH: QVQLQESGPGLVRPSETLSLTCDVSGYLISSGYYWGWVRQPPGKGLEWIGSVYHSGNAYYNPSLKGRVTMSVDTSKNQFSLKLTSVAAEDTAVYYCAREHRSGYQRYWGQGTLVTVSS
VL: IQMTQSPSSLSASVGDRVTITCRASQAIANSLAWYQQRPGKAPKLLIYAASSLESGVPSRFSGSGSGTDYTLTISSLQPEDFATYYCQQYYINPRTFGQGTKVEIKR
notes: as for B1
binding result [2]: binds | binding result [3]: binds

B3: TBLA1012 (antibody, V domains shown)
VH: LLQLVESGGGVVQPGRSLRLSCAASGFTFTRHGFHWVRQAPGKGLEWVAVISSDGRKIHYTDSVKGRFVISRDDSDNTVYLHMNSLRLGDTALYYCARDSGGTPGPYWGQGTLVTVSS
VL: DVVMTQSPLSLPVTLGQPASISCRSSQSLVHSDGNTYLNWFQQRPGQSPRRLIYMVSNRDSGVPDRFSGSGSGTDFTLKISRVEAEDVGVYYCLQGTHWPPTIGQGTKVEIE
notes: as for B1
binding result (cancer/testis antigen 1A): binds

B4: TBLA1007 (antibody, V domains shown)
VH: QVQLVQSGAEVKKPGASVKVSCKASGYTFTNYGFSWVRQAPGQGLEWMGRITTYNRDTIYAQKFQGRVTMTTDTSTSTAYMELRSLRSDDTAVYFCARVVPGDSVYGAFDIWGQGTMVTVSS
VL: DIQMTQSPSSLSASVGDRVTITCRASQSISSYLNWYQQKPGRAPRLLIYAASRLQIGVPSRFSGSGSGTDFTLTISSLQPEDFATYYCQQSYRMPCSFGQGTKLEI
notes: as for B1
binding result [4]: binds | binding result [5]: binds | binding result (Reticulocalbin 3): binds

B5: TBRE1002 (antibody, V domains shown)
VH: QVQLVESGGGVVQPGGSLRLSCGASGFAFSSNGMHWVRQAPGKGLEWVAFIHYDGRNKHYTDSVKGRFAISVDDSKTTLYLQMSSLKTEDTAVYYCVKDSRVTGQSSGYIFDSWGQGTLVTVSS
VL: ETVMTQSPATLSVSPGDRATLSCRASQNVNFNLAWYQQKPGQAPRLLIYDASTRATGIPARFSGSASGTEFTLTINSLQSEDFAVYYCQQYNNWWTFGQGTKLEIKR
notes: as for B1
binding result [6]: binds

B6: TBLA1010 (antibody, V domains shown)
VH: EVQLVESGGGLVQPGRSLRLSCAASGFPFGDYAMHWVRQAPGKGLEWVSGIGWDSGGIGYADSVKGRFTISRDIAKNSLYLEINSLRPDDTALYYCAKAAATLPYFRFAMDVWGQGTPVTVSS
VL: EIVLTQSPGTLSLSPGERATLSCRASQSVSSSYLAWYQQKPGQAPRLLIFGASTRASGIPDRFSGRGSGTEFTLTISRLEPEDFAVYYCQQYDSSPFTFGPGTKVEIKR
notes: as for B1
binding result [7]: binds

B7: TBLA1013 (antibody, V domains shown)
VH: EVQLLESGGGLVQPGGSLTLSCVGSRFTFSSYAMNWVRQSPGRGLEWVASISATTGSTYYTDSVEGRFTISRDNSRDTLYLQMNSLRADDTALYYCVRSFVGAVPAYPNFDFWGPGTLVTVSS
VL: PSGLTQPPSASGTPGQRVTMSCSGSSSNIGRNYVYWYQQLPGAAPKLLIYRDNQRPSGVPDRFSGSKSGTSASLAISGLRSEDEADYYCAAWDDNVSGPGFGAGTRLTVLG
notes: as for B1
binding result [8]: binds

B8: TBRE1013 (antibody, V domains shown)
VH: EVQLVESGGGLVKPGGSLRLSCAGSGFSFSSYSMNWVRQAPGKGLEWVSSISSKSSSKNYIDSVKNRFIISRDNAKNSLYLQMNSLRAEDTAVYYCARDLELIIAAGAPLDHWGQGTLVTVSS
VL: DIQMTQSPSSLSASVGDRVTITCRASQSIKNYVNWYQQKPGEAPNLLIFAASNLQSGVPSRFTGSGSGTDFSLTISSLQPEDFAAYYCQQTYSHPRTFGQGTRVEIKR
notes: VH/VL only
binding result [9]: binds
